Data published in patent US20250376505A1.
Changes are numbered by the printed parent chain.

B1: G5P1 (antibody, V domains shown)
VH: QVQLQESGPGLVKPSGTLSLTCTVSGGSIRNSYWSWIRQPPGKGLEWIGYIYYTGTTNSNPSLKSRVTISVHMSRNQISLKLNSVTPADTAVYYCAQGGGSGDLHYWGQGTLVTVSS
VL: NFMLTQPASVSGSPGQSITISCTGTRSDVGGYNYVSWYQQHPGKAPKLMIYDISSRPSGVSNRFSASKSGNTASLTISGLQAEDEADYYCISFATGYTWVFGGGTRLTVL
B2: E7P5 (antibody, V domains shown)
VH: B1 VH with G16E, P40S, T56S, V67L, I69V, R75Q
VL: B1 VL with N1Q, F2S, M3A, M49I, R106S
B3: D7P6 (antibody, V domains shown)
VH: EVQLLESGGGLVQPGGSLRLSCAASGFPFSSYAMSWVRQAPGKGLEWVSGITGSASGTYYADSVKGRFTISRDNSKNTLYLRMNSLRAEDTAVYYCAKEGAYSYDYWYFDLWGRGTLVTVSS
VL: EIVLTQSPGTLSLSPGERATLSCRASQSVSGSYLAWYQQKPGQTPRLLIYGASSRATGIPDRFSGSGSGTDFTLTINRLDPEDFGVYYCQQYGSLVTFGGGSKVEIK
B4: B9P6 (antibody, V domains shown)
VH: EVQLVESGGGLVQPGGSLRLSCAASGFTFRSYTMDWVRQAPGKGLEWVSCISGSSNHKYYADSVRGRFTISRDNAKNSLFLQMNSLRAEDSAVYYCAREDDILTPLYGMDVWGPGTTVTVSS
VL: EIVLTQSPDTLSLSPGARATLSCRASQSVRSNYLAWYQQKPGQAPRLLIYGASSRATAIPDRFSGSGSGTDFTLTITRLEPEDFAVYYCHQYGSSPRTFGQGTKVEIK
B5: G11P1 (antibody, V domains shown)
VH: B4 VH with T33S, C50Y, H57Q, A61T
VL: B4 VL with G93A
B6: B2P8 (antibody, V domains shown)
VH: B1 VH with G16E, R75Q
VL: B4 VL with G93A
B7: E11P6 (antibody, V domains shown)
VH: B4 VH with T33S, C50Y, H57Q, A61T
VL: B4 VL with F72L, G93A
B8: B10P1 (antibody, V domains shown)
VH: EVQLSESGGGLVQPGGSLRLSCAASGFTFSSYAMSWVRQAPGKGLEWVSSLTGSGGSTYYRDSVKGRFTIFRDNSKKTLYMQMNSLRAEDTAVYYCAKEGAYSYDFWYFDLWGRGTLVTVSS
VL: EIVLTQSPGTLSLSPGERATLSCRASQTVSGNYLAWYQQKPGQSPSLLIYGASSRATGIPDRFTGSGSGTDFTLTISRLEPADFAVYYCQQYGRPLTFGGGTKVDIK
B9: C4P7 (antibody, V domains shown)
VH: B8 VH with S5L
VL: B8 VL with D105E
B10: B8P7 (antibody, V domains shown)
VH: QVQLQESGPGLVRPSETLSLTCTVSGGSISPYYWNWIRQPPGKGLEWIGYIYYSGNTKYNPSLKSRVTISVDTSKNQFSLKLSSVSAADTAVYYCARDSCSGTCYLGDNWFDPWGQGTLVTVSS
VL: QSVLTQPPSVSGAPGQRVTISCTGSSSNIGANNDVHWYQHLPGTAPKLLIYGNNHRPSGVPDRFSGSKSGTSASLAITGLQAEDEADYYCQSYDSSLSTSKVFGGGTKLTVL
B11: C4P6 (antibody, V domains shown)
VH: B10 VH with D108G
VL: B10 VL
B12: C11P7 (antibody, V domains shown)
VH: EVQLVESGGGLVQPGGSLKLSCAASGFSLSNSEVHWVRQASGKGLEWIGRVRSRANRHATGYTESVNGRFTVSRDDSKNTASLQLESLKIEDTAVYYCTGVRGVISRYFAMDVWGQGTTVTVSS
VL: QSALTQPASVSGSPGQSITISCTGTSSDVGAYNYVSWYRLRPGKDPHLIIYDVSHRPAGVSNRFSGSKSGNTASLTISGLQAEDEDEYYCCSYAHRGTPLFGGGTKLTVL

Target: VP1 pentamer of BKV genotype I (truncated VP1, residues 31 to 301, Dunlop sequence with Cys 104 replaced by Ser) (BK virus genotype I (Dunlop)) (UniProt P03088)
Sequence (P03088 31-301): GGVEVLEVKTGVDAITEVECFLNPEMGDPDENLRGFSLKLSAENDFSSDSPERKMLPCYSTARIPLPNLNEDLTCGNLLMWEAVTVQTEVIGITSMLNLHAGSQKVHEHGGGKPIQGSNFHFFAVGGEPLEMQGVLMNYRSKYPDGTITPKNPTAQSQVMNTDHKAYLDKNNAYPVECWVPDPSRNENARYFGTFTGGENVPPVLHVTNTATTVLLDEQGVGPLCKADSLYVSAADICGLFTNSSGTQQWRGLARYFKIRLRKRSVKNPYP
Assay: ELISA, coated VP1 pentamer

Row | Binder | EC50
1 | B1 | 7 µg/mL
2 | B2 | 0.15 µg/mL
3 | B3 | 6 µg/mL
4 | B4 | 0.12 µg/mL
5 | B5 | 0.7 µg/mL
6 | B6 | 10 µg/mL
7 | B7 | 0.6 µg/mL
8 | B8 | 7 µg/mL
9 | B9 | 5 µg/mL
10 | B10 | 0.05 µg/mL
11 | B11 | 1.5 µg/mL
12 | B12 | 6 µg/mL
